Data reported in article PMC8080589, “Modulation of αVβ6 integrin in osteoarthritis-related synovitis and the interaction with VTN(381–397 a.a.) competing for TGF-β1 activation” (Experimental & Molecular Medicine, 2021).
Ends that are not written are not given here.

Tests used:
Assay type in all cases: binding
integrin αVβ6 [1] = target: T1, integrin αVβ6 (Homo sapiens, UniProt P06756+P18564); assay: Competition study, 125ISIB-echistatin vs ligands on coated αVβ6; conditions: competition with 20 nM 125ISIB-echistatin, recombinant human αVβ6 coated at 1.8 µg/mL, IBB pH 7.4 / 0.5% BSA, 2 h room temperature, duplicate wells, gamma counter, five-parameter logistic
T1 construct: purchased R&D System; Minneapolis, MN, USA
T1 sequence (P06756 31-992 limits assumed): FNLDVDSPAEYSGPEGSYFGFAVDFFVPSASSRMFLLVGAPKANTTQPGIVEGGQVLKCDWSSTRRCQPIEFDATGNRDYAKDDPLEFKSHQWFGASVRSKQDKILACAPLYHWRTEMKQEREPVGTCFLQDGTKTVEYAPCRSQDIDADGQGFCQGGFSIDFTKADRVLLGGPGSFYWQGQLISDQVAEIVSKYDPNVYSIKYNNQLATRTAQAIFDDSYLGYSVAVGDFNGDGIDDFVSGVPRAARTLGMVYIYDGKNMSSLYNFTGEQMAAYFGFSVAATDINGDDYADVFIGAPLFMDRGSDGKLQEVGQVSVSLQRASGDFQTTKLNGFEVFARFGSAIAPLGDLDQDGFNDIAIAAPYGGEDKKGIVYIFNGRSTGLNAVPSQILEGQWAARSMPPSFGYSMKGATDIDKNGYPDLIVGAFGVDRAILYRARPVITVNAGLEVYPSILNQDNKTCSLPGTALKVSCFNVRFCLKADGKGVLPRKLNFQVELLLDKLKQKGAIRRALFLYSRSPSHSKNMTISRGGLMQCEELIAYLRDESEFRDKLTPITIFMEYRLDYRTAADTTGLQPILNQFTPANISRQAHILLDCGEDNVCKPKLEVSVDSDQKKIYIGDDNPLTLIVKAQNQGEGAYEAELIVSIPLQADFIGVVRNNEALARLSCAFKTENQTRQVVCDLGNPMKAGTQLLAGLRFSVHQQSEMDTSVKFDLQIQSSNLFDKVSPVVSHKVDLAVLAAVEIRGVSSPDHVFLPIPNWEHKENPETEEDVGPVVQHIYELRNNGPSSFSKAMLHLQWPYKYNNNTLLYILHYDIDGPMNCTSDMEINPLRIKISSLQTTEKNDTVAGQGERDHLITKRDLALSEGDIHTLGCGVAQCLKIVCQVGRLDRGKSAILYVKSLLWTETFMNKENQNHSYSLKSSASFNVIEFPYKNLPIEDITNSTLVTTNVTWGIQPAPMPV
T1 sequence (P18564 22-707 limits assumed): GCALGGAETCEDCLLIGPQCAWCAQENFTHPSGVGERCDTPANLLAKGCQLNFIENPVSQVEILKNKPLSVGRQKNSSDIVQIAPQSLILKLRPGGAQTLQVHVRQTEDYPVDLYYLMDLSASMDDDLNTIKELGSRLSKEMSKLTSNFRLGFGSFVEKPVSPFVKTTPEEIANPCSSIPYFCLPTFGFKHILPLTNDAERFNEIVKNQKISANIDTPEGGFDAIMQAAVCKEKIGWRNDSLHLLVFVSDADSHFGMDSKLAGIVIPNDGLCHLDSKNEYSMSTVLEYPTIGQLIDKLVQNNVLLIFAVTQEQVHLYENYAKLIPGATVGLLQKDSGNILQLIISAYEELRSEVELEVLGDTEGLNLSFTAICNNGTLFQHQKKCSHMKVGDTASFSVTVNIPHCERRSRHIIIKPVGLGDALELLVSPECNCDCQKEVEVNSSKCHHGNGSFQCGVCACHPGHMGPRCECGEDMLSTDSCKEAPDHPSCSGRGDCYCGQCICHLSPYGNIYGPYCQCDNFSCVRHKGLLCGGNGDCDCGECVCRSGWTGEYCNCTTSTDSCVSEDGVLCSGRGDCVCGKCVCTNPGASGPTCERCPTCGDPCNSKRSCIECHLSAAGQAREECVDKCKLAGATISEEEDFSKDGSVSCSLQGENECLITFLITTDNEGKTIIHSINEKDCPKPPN
Method: (§1) A competition study was performed to investigate the interaction of VTN(381–397 a.a.) with five different integrins. Radiolabeled echistatin, a disintegrin known to bind integrin receptors, was used as a tracer for the binding assays. Lyophilized echistatin was provided by Bachem (Bubendorf, Switzerland) and radiolabeled by conjugation with a radioiodinated benzoate (^125ISIB) to the epsilon amino group of lysine side chains. For the five integrins, α5β1, αVβ1, αVβ3, αVβ5, and αVβ6 (R&D System; Minneapolis, MN, USA), a solution at 1.8 µg/mL was prepared with integrin-binding buffer (IBB; 20 mM Tris pH 7.4, 150 mM NaCl, 2 mM CaCl2, 1 mM MgCl2, 1 mM MnCl2). Nunc Maxisorp Module plates were coated overnight at 4 °C with integrin complex at 1.8 µg/mL. After the wells were washed with sample buffer (IBB, 0.5% BSA), blocking solution (IBB, 2% BSA) was added, and the microplate was incubated for 2 h at room temperature. The wells were then washed three times with IBB/0.5% BSA. Then, ^125ISIB-echistatin was diluted in sample buffer to fixed concentrations of 4, 4, 8, 8, and 20 nM for α5β1, αVβ1, αVβ3, αVβ5, and αVβ6 competition studies, respectively. The ^125ISIB-echistatin was mixed with sample buffer at a ratio of 1:1 (total binding = control well) or with increasing concentrations of ligands (Supplementary information SI1) [complete VTN, VTN(381–397 a.a.), VTN(365–381 a.a.)] at a ratio 1:1 and added to wells in duplicate. We used 1,4,7-triazacyclononane-1,4,7-triacetic acid (NOTA) as a negative control. […] After rinsing, bound radioactivity was quantified using a gamma counter. The percentage of relative binding of radiolabeled echistatin was calculated as follows: radioactivity in the test well*100/radioactivity in the reference well. […] For comparison of the potency of ligands in inhibiting bound ^125ISIB-echistatin for different integrin complexes, the half-maximal inhibitory concentration (IC50) was calculated. The IC50 value was determined by constructing a dose–response curve and examining the effect of different concentrations of ligands on ^125ISIB-echistatin binding. […]
To determine if VTN(381–397 a.a.) could interact with integrins, we investigated its ability to compete with radiolabeled echistatin for binding to five different integrin complexes: α5β1, αVβ1, αVβ3, αVβ5 and αVβ6. […] First, the binding affinity of echistatin to the five integrins was measured by determining the equilibrium dissociation constant (KD). […] The fixed concentration of radiolabeled echistatin was determined according to its KD value. For each ligand concentration, the relative binding of ^125ISIB-echistatin to coated integrins was then measured, and values were plotted versus the logarithm of ligand concentration.

integrin α5β1 [2] = target: T2, integrin α5β1 (Homo sapiens, UniProt P05556+P08648); assay: Competition study, 125ISIB-echistatin vs ligands on coated α5β1; conditions: competition with 4 nM 125ISIB-echistatin, recombinant human α5β1 coated at 1.8 µg/mL, IBB pH 7.4 / 0.5% BSA, 2 h room temperature, duplicate wells
T2 construct: purchased R&D System; Minneapolis, MN, USA
T2 sequence (P08648 42-995 limits assumed): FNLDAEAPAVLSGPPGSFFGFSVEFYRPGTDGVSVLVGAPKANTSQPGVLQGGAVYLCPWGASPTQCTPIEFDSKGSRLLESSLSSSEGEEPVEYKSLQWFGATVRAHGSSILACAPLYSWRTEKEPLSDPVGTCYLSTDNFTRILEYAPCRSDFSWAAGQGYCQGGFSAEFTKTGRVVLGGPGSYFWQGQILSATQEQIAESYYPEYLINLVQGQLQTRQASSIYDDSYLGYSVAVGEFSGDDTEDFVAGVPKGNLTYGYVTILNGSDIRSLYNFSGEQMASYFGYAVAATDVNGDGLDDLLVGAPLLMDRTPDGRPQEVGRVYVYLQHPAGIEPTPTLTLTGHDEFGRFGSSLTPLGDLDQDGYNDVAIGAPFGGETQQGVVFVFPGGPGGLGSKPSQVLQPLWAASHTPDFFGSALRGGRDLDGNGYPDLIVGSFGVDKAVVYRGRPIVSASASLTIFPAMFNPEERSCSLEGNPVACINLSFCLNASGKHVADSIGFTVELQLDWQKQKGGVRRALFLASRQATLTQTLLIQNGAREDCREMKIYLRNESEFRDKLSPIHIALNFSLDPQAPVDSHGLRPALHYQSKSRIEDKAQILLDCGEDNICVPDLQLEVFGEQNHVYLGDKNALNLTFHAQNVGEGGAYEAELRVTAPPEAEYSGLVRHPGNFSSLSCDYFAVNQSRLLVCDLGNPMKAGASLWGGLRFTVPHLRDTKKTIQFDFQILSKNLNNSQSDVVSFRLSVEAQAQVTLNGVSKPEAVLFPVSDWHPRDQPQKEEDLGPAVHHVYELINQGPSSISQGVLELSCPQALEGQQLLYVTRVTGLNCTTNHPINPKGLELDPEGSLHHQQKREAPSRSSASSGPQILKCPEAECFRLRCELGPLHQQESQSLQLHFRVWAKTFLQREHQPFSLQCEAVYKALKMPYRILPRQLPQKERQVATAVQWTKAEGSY
T2 sequence (P05556 21-728 limits assumed): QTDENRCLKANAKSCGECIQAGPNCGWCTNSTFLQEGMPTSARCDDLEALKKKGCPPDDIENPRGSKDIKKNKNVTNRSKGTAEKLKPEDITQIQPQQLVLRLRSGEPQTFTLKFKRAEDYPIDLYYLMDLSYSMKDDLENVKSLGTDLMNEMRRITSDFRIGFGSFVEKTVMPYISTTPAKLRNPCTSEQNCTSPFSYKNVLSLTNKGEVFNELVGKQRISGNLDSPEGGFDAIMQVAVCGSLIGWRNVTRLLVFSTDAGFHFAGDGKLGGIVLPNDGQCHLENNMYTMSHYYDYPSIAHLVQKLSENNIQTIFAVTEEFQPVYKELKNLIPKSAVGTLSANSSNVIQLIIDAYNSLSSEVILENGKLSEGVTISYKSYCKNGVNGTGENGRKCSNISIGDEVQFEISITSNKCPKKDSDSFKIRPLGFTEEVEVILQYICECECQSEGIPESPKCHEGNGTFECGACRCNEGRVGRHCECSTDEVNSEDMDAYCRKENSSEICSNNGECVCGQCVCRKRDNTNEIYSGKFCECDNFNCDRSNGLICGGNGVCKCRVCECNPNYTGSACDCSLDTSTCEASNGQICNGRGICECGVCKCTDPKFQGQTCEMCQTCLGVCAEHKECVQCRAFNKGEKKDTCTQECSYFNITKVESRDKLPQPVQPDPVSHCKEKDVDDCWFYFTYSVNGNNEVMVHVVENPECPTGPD
Method: as §1, with “µg/mL.” for “µg/mL. After the wells were washed with sample buffer (IBB, 0.5% BSA), blocking solution (IBB, 2% BSA) was added, and the microplate was incubated for 2 h at room temperature. The wells were then washed three times with IBB/0.5% BSA. Then, ^125ISIB-echistatin was diluted in sample buffer to fixed concentrations of 4, 4, 8, 8, and 20 nM for α5β1, αVβ1, αVβ3, αVβ5, and αVβ6 competition studies, respectively. The ^125ISIB-echistatin was mixed with sample buffer at a ratio of 1:1 (total binding = control well) or with increasing concentrations of ligands (Supplementary information SI1) [complete VTN, VTN(381–397 a.a.), VTN(365–381 a.a.)] at a ratio 1:1 and added to wells in duplicate. We used 1,4,7-triazacyclononane-1,4,7-triacetic acid (NOTA) as a negative control.”

integrin αVβ1 [3] = target: T3, integrin αVβ1 (Homo sapiens, UniProt P05556+P06756); assay: Competition study, 125ISIB-echistatin vs ligands on coated αVβ1; conditions: competition with 4 nM 125ISIB-echistatin, recombinant human αVβ1 coated at 1.8 µg/mL, IBB pH 7.4 / 0.5% BSA, 2 h room temperature, duplicate wells
T3 construct: purchased R&D System; Minneapolis, MN, USA
T3 sequence (P06756 31-992 limits assumed): as the sequence (P06756 31-992 limits assumed) above
T3 sequence (P05556 21-728 limits assumed): as the sequence (P05556 21-728 limits assumed) above
Method: as §1, with “µg/mL.” for “µg/mL. After the wells were washed with sample buffer (IBB, 0.5% BSA), blocking solution (IBB, 2% BSA) was added, and the microplate was incubated for 2 h at room temperature. The wells were then washed three times with IBB/0.5% BSA. Then, ^125ISIB-echistatin was diluted in sample buffer to fixed concentrations of 4, 4, 8, 8, and 20 nM for α5β1, αVβ1, αVβ3, αVβ5, and αVβ6 competition studies, respectively. The ^125ISIB-echistatin was mixed with sample buffer at a ratio of 1:1 (total binding = control well) or with increasing concentrations of ligands (Supplementary information SI1) [complete VTN, VTN(381–397 a.a.), VTN(365–381 a.a.)] at a ratio 1:1 and added to wells in duplicate. We used 1,4,7-triazacyclononane-1,4,7-triacetic acid (NOTA) as a negative control.”

integrin αVβ3 [4] = target: T4, integrin αVβ3 (Homo sapiens, UniProt P05106+P06756); assay: Competition study, 125ISIB-echistatin vs ligands on coated αVβ3; conditions: competition with 8 nM 125ISIB-echistatin, recombinant human αVβ3 coated at 1.8 µg/mL, IBB pH 7.4 / 0.5% BSA, 2 h room temperature, duplicate wells
T4 construct: purchased R&D System; Minneapolis, MN, USA
T4 sequence (P06756 31-992 limits assumed): as the sequence (P06756 31-992 limits assumed) above
T4 sequence (P05106 27-718 limits assumed): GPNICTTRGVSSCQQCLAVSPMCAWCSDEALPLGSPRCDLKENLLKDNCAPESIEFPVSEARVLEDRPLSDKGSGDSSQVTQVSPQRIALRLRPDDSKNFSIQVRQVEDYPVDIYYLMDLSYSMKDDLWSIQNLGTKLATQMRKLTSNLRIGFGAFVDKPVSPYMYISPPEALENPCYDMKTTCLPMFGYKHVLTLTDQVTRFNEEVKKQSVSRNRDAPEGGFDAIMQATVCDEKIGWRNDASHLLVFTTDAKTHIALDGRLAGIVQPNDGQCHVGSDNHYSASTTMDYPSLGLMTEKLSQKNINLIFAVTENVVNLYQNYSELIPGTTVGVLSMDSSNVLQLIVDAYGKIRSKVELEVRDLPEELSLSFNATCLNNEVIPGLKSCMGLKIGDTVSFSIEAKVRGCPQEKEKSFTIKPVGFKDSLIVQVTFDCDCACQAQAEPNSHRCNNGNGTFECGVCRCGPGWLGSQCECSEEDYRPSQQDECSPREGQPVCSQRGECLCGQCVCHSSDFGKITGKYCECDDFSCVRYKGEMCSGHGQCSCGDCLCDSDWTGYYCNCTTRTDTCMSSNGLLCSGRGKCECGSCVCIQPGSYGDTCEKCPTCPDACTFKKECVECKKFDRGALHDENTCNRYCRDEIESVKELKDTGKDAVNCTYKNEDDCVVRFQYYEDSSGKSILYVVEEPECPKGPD
Method: as §1, with “µg/mL.” for “µg/mL. After the wells were washed with sample buffer (IBB, 0.5% BSA), blocking solution (IBB, 2% BSA) was added, and the microplate was incubated for 2 h at room temperature. The wells were then washed three times with IBB/0.5% BSA. Then, ^125ISIB-echistatin was diluted in sample buffer to fixed concentrations of 4, 4, 8, 8, and 20 nM for α5β1, αVβ1, αVβ3, αVβ5, and αVβ6 competition studies, respectively. The ^125ISIB-echistatin was mixed with sample buffer at a ratio of 1:1 (total binding = control well) or with increasing concentrations of ligands (Supplementary information SI1) [complete VTN, VTN(381–397 a.a.), VTN(365–381 a.a.)] at a ratio 1:1 and added to wells in duplicate. We used 1,4,7-triazacyclononane-1,4,7-triacetic acid (NOTA) as a negative control.”

integrin αVβ5 [5] = target: T5, integrin αVβ5 (Homo sapiens, UniProt P06756+P18084); assay: Competition study, 125ISIB-echistatin vs ligands on coated αVβ5; conditions: competition with 8 nM 125ISIB-echistatin, recombinant human αVβ5 coated at 1.8 µg/mL, IBB pH 7.4 / 0.5% BSA, 2 h room temperature, duplicate wells
T5 construct: purchased R&D System; Minneapolis, MN, USA
T5 sequence (P06756 31-992 limits assumed): as the sequence (P06756 31-992 limits assumed) above
T5 sequence (P18084 24-719 limits assumed): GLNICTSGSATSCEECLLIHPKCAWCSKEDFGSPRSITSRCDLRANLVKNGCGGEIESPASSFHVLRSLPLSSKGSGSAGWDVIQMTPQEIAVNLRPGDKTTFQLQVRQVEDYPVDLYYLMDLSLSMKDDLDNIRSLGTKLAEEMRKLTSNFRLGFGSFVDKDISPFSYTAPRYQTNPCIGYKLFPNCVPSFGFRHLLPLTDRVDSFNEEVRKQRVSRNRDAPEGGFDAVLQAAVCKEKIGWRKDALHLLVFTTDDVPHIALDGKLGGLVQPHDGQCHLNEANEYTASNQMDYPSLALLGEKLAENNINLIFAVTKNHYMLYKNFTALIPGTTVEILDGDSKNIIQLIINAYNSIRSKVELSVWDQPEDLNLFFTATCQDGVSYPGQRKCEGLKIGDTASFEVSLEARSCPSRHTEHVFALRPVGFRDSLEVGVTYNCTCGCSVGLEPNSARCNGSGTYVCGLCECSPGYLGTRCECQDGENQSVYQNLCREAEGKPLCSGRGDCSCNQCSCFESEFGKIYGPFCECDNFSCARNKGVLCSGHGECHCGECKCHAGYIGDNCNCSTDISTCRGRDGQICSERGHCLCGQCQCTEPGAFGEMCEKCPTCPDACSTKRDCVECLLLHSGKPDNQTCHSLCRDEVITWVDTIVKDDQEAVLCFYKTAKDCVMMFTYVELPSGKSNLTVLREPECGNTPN
Method: as §1, with “µg/mL.” for “µg/mL. After the wells were washed with sample buffer (IBB, 0.5% BSA), blocking solution (IBB, 2% BSA) was added, and the microplate was incubated for 2 h at room temperature. The wells were then washed three times with IBB/0.5% BSA. Then, ^125ISIB-echistatin was diluted in sample buffer to fixed concentrations of 4, 4, 8, 8, and 20 nM for α5β1, αVβ1, αVβ3, αVβ5, and αVβ6 competition studies, respectively. The ^125ISIB-echistatin was mixed with sample buffer at a ratio of 1:1 (total binding = control well) or with increasing concentrations of ligands (Supplementary information SI1) [complete VTN, VTN(381–397 a.a.), VTN(365–381 a.a.)] at a ratio 1:1 and added to wells in duplicate. We used 1,4,7-triazacyclononane-1,4,7-triacetic acid (NOTA) as a negative control.”

integrin α5β1 [6] = target: T2, integrin α5β1; assay: Saturation assay with radiolabeled echistatin, α5β1; conditions: increasing radiolabeled echistatin, integrin coated at 1.8 µg/mL
Method: (§2) To determine if VTN(381–397 a.a.) could interact with integrins, we investigated its ability to compete with radiolabeled echistatin for binding to five different integrin complexes: α5β1, αVβ1, αVβ3, αVβ5 and αVβ6. We also tested the binding affinity of the whole VTN protein and another VTN fragment, VTN(365–381 a.a), as previously described by Maile et al.,[33]. First, the binding affinity of echistatin to the five integrins was measured by determining the equilibrium dissociation constant (KD). KD was evaluated by saturation assays involving addition of increasing concentrations of radiolabeled echistatin to a constant concentration of integrins (coated at 1.8 µg/mL). […] Subsequently, competitive experiments were performed using increasing concentrations of ligand and a fixed amount of radiolabeled echistatin. The fixed concentration of radiolabeled echistatin was determined according to its KD value. For each ligand concentration, the relative binding of ^125ISIB-echistatin to coated integrins was then measured, and values were plotted versus the logarithm of ligand concentration.

integrin αVβ1 [7] = target: T3, integrin αVβ1; assay: Saturation assay with radiolabeled echistatin, αVβ1; conditions: increasing radiolabeled echistatin, integrin coated at 1.8 µg/mL
Method: as §2

integrin αVβ3 [8] = target: T4, integrin αVβ3; assay: Saturation assay with radiolabeled echistatin, αVβ3; conditions: increasing radiolabeled echistatin, integrin coated at 1.8 µg/mL
Method: as §2

integrin αVβ5 [9] = target: T5, integrin αVβ5; assay: Saturation assay with radiolabeled echistatin, αVβ5; conditions: increasing radiolabeled echistatin, integrin coated at 1.8 µg/mL
Method: as §2

integrin αVβ6 [10] = target: T1, integrin αVβ6; assay: Saturation assay with radiolabeled echistatin, αVβ6; conditions: increasing radiolabeled echistatin, integrin coated at 1.8 µg/mL
Method: as §2

In the case of “Echistatin (QCESGPCCRNCKFLKEGTICKRARGDDMDDYCNGKTCDCPRNPHKGPAT; disulfide (positions not given here); not fully specified (bridges); also: Lys ε-amino groups conjugated with 125I-iodobenzoate (125ISIB), positions not given here) [tracer radiolabeled with radioiodinated benzoate (125ISIB) at lysine side chains]”, the IC50 (integrin αVβ6 [1]) is reported as 14 nM, the IC50 (integrin α5β1 [2]) is reported as 2 nM and the IC50 (integrin αVβ1 [3]) is reported as 1.5 nM. For the same substance, the IC50 (integrin αVβ3 [4]) was 3.7 nM, the IC50 (integrin αVβ5 [5]) was 4 nM and the Kd (integrin α5β1 [6]) was 1.48 nM. It also gave a Kd (integrin αVβ1 [7]) of 0.99 nM, a Kd (integrin αVβ3 [8]) of 3.17 nM and a Kd (integrin αVβ5 [9]) of 3.46 nM. It also gave a Kd (integrin αVβ6 [10]) of 17.1 nM.
